This data set concerns the molecule itself. In words: cross-linking.

A word on the stoichiometry N: it is a count of units in the complex or per binding partner.

B1: PrfA L140F (natural protein)
chain: MNAQAEEFKKYLETNGIKPKQFHKKELIFNQWDPQEYCIFLYDGITKLTSISENGTIMNLQYYKGAFVIMSGFIDTETSVGYYNLEVISEQATAYVIKINELKELLSKNLTHFFYVFQTLQKQVSYSLAKFNDFSINGKFGSICGQLLILTYVYGKETPDGIKITLDNLTMQELGYSSGIAHSSAVSRIISKLKQEKVIVYKNSCFYVQNLDYLKRYAPKLDEWFYLACPATWGKLN
Regarding B1, the binding result is listed as “binds”.

B2: wild-type PrfA (positive regulatory factor A) (natural protein)
chain: MNAQAEEFKKYLETNGIKPKQFHKKELIFNQWDPQEYCIFLYDGITKLTSISENGTIMNLQYYKGAFVIMSGFIDTETSVGYYNLEVISEQATAYVIKINELKELLSKNLTHFFYVFQTLQKQVSYSLAKFNDFSINGKLGSICGQLLILTYVYGKETPDGIKITLDNLTMQELGYSSGIAHSSAVSRIISKLKQEKVIVYKNSCFYVQNLDYLKRYAPKLDEWFYLACPATWGKLN
B2: the “stoichiometry N” value turned out to be 2.

B3: PrfA Y63C (natural protein)
chain: MNAQAEEFKKYLETNGIKPKQFHKKELIFNQWDPQEYCIFLYDGITKLTSISENGTIMNLQYCKGAFVIMSGFIDTETSVGYYNLEVISEQATAYVIKINELKELLSKNLTHFFYVFQTLQKQVSYSLAKFNDFSINGKLGSICGQLLILTYVYGKETPDGIKITLDNLTMQELGYSSGIAHSSAVSRIISKLKQEKVIVYKNSCFYVQNLDYLKRYAPKLDEWFYLACPATWGKLN
For the protein B3, the binding result was “binds”.

(Values after article PMC2646509 (Microbiology (Reading, England), 2008).)
